Key:
Assay in all cases: cell_activity
[1] = tested on: ExoS54-FLAG-HPRT1-T2 (HPRT1 right TALEN) (Artificial); conditions: paired with HPRT1-T1; human iPSC, MOI 100, 3 h, after 6TG selection, no template; overall mutation efficiency about 1%
[2] = tested on: ExoS54-FLAG-TALEN1 (gfp/Venus left TALEN) (Artificial); conditions: paired with TALEN2; T3SS protein injection into EB5 mESC, MOI 100, 3 h; about 30% at MOI 400; indels confirmed by sequencing
[3] = tested on: ExoS54-FLAG-HPRT1-T1 (HPRT1 left TALEN) (Artificial); conditions: paired with HPRT1-T2; human iPSC, MOI 100, 3 h, after 6TG selection, no template; overall mutation efficiency about 1%
[4] = tested on: ExoS54-FLAG-TALEN2 (gfp/Venus right TALEN) (Artificial); conditions: paired with TALEN1; T3SS protein injection into EB5 mESC, MOI 100, 3 h; about 30% at MOI 400; indels confirmed by sequencing

Sequence “GATGGGAGGCCATCACATTGT (double strand) [HPRT1 exon 2 TALEN right half-site (top strand)]” has an activity (% DNA lost XhoI site) [1] of 20.
Sequence “TTCACCGGGGTGGTGCC (double strand) [gfp TALEN left half-site]” has an activity (% GFP-negative cells) [2] of 20.
“GTAGGACTGAACGTCTTGCTC (double strand) [HPRT1 exon 2 TALEN left half-site]” gave an activity (% DNA lost XhoI site) [3] of 20.
In the case of “CTGGACGGCGACGTAAA (double strand) [gfp TALEN right half-site (top strand)]”, the activity (% GFP-negative cells) [4] is reported as 20.

Source: patent publication US20180119119
